Assays:
Assay in all cases: Radioligand binding
H374A RAMP1/CLR = target: T1, H374A RAMP1/CLR (Homo sapiens, UniProt O60894+Q16602, H374A); details: H374A CLR/RAMP1, Cos7 membranes
T1 construct: expressed in transfected cells; host or cells: Cos7 (membranes)
Procedure: (§1) This was performed on membranes made from transfected Cos7 cells, essentially as described elsewhere. […] Incubations were terminated by centrifugation.
(§2) Radioligand binding data were analysed in Graphpad Prism as described for the cAMP assays.

F349A RAMP2/CLR = target: T2, F349A RAMP2/CLR (Homo sapiens, UniProt O60895+Q16602, F349A); details: 125I-AM bound (span of displacement curve) normalized to WT, n = 3
T2 construct: expressed in transfected cells; host or cells: Cos7 (membranes)
Procedure: as §1, §2

M230A RAMP2/CLR = target: T3, M230A RAMP2/CLR (Homo sapiens, UniProt O60895+Q16602, M230A); details: 125I-AM bound (span of displacement curve) normalized to WT, n = 3
T3 construct: expressed in transfected cells; host or cells: Cos7 (membranes)
Procedure: as §1, §2

WT RAMP1/CLR = target: T4, WT RAMP1/CLR (Homo sapiens, UniProt O60894+Q16602); details: WT CLR/RAMP1, Cos7 membranes
T4 construct: expressed in transfected cells; host or cells: Cos7 (membranes)
Procedure: as §1, §2

E348A RAMP2/CLR = target: T5, E348A RAMP2/CLR (Homo sapiens, UniProt O60895+Q16602, E348A); details: 125I-AM bound (span of displacement curve) normalized to WT, n = 3
T5 construct: expressed in transfected cells; host or cells: Cos7 (membranes)
Procedure: as §1, §2

N305A RAMP2/CLR = target: T6, N305A RAMP2/CLR (Homo sapiens, UniProt O60895+Q16602, N305A); details: 125I-AM bound (span of displacement curve) normalized to WT, n = 3
T6 construct: expressed in transfected cells; host or cells: Cos7 (membranes)
Procedure: as §1, §2

V198A RAMP2/CLR = system: V198A RAMP2/CLR; parameters: species or system human; details: 125I-AM bound (span of displacement curve) normalized to WT, n = 3
Procedure: as §1
Radioligand binding data were analysed in Graphpad Prism as described for the cAMP assays. […] Thus for each mutant, the total specific binding relative to WT was calculated from the span values and the 95% confidence limits were calculated. This relies on the Bmax value not changing; while this is consistent with our ELISA data, we cannot rule out a contribution to […] arising from a small change in receptor expression.

T4 sequence (Q16602 23-461): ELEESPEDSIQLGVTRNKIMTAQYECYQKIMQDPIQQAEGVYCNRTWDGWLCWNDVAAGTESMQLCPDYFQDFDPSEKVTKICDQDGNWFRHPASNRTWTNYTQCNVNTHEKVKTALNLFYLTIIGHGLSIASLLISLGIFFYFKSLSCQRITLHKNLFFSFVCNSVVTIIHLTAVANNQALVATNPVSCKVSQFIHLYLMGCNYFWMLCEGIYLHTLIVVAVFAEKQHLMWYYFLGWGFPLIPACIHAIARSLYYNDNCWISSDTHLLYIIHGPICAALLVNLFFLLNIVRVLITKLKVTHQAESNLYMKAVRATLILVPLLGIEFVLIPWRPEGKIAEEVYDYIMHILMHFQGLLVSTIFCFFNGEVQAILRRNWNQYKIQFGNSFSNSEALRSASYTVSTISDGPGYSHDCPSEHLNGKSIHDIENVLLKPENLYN
T4 sequence (O60894 27-148): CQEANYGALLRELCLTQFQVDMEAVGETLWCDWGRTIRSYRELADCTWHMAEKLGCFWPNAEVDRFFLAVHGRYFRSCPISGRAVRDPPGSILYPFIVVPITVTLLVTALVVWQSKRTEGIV
T5 sequence (Q16602 23-461 E348A): as the sequence (Q16602 23-461) above, with E326A counted along it
T5 sequence (O60895 43-175): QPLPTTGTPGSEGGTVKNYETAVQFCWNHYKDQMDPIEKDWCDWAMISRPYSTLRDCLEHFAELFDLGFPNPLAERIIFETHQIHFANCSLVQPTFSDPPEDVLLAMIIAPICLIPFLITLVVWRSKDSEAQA
T6 sequence (Q16602 23-461 N305A): as the sequence (Q16602 23-461) above, with N283A counted along it
T6 sequence (O60895 43-175): as the sequence (O60895 43-175) above
T2 sequence (Q16602 23-461 F349A): as the sequence (Q16602 23-461) above, with F327A counted along it
T2 sequence (O60895 43-175): as the sequence (O60895 43-175) above
T1 sequence (Q16602 23-461 H374A): as the sequence (Q16602 23-461) above, with H352A counted along it
T1 sequence (O60894 27-148): as the sequence (O60894 27-148) above
T3 sequence (Q16602 23-461 M230A): as the sequence (Q16602 23-461) above, with M208A counted along it
T3 sequence (O60895 43-175): as the sequence (O60895 43-175) above

Substance: [^125I]-human (13–52) iodotyrosyl^52adrenomedullin [125I-AM]
- specific binding of 125I-AM (H374A RAMP1/CLR): 5243 ± 112 dpm/mg
- % Ligand bound (F349A RAMP2/CLR): 132.3 ± 4.3 %
- % Ligand bound (M230A RAMP2/CLR): 109.4 ± 3.7%
- specific binding of 125I-AM (WT RAMP1/CLR): 78 ± 208 dpm/mg
- % Ligand bound (E348A RAMP2/CLR): 147.9 ± 2.9 %
- % Ligand bound (N305A RAMP2/CLR): 62.7 ± 4.7 %
- % Ligand bound (V198A RAMP2/CLR): 116.2 ± 3.7 %

— publication PMC5609567 (Biochemical Pharmacology, 2017)
